The source of these data is PMC6193675 (PLoS ONE, 2018).

The target of this test is yeast-displayed unmodified gp140 from HIV strain YU2, fused at its C-terminal to Aga2p (HIV-1 group M subtype B, isolate YU-2, UniProt P35961, strain). Nature of the test: flow cytometry on cells; yeast cells displaying YU2 Env-Aga2p fusions incubated with 100 nM precursor antibody at 4°C for 16-18 h in PBI (PBS pH 7.2, 1% BSA, protease inhibitors); fluorescent secondary antibody. The following applies: one partner purified. A general note: A flow cytometer gives signals particle by particle.

B1: reconstructed predicted precursor form of antibody VRC01 (antibody, V domains shown)
VH: not shown
VL: EIVLTQSPATLSLSPGERATLSCRASQSVSSYLAWYQQKPGQAPRLLIYDASNRATGIPARFSGSGSGTDFTLTISSLEPEDFAVYYCQQRSNWPYTFGQGTKLEIK
notes: V(D)J segments with the highest identity to mature VRC01 (IgBLAST), mature HCDR3 kept; Detected with anti-human secondary antibodies; also called precursor for antibody VRC01; VRC01 precursor; source: HEK293T, transfected, purified
Take B1: the binding result was “no binding (tested: 100 nM)”.

B2: reconstructed predicted precursor form of antibody 447-52D (antibody, V domains shown)
VH: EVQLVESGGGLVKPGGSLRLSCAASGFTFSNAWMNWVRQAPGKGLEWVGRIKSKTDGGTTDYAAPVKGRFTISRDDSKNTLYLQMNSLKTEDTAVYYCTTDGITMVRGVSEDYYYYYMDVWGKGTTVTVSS
VL: QSVLTQPPSVSAAPGQKVTISCSGSSSNIGNNYVSWYQQLPGTAPKLLIYDNNKRPSGIPDRFSGSKSGTSATLGITGLQTGDEADYYCGTWDSSLSAGWVFGGGTKLTVL
notes: V(D)J segments with the highest identity to mature 447-52D (IgBLAST), mature HCDR3 kept; Detected with anti-human secondary antibodies; also called precursor for antibody 447-52D; 447-52D precursor; source: HEK293T, transfected, purified
As to B2, the binding result is listed as “no binding (tested: 100 nM)”.
